Source: publication PMC7049163 (Proceedings of the National Academy of Sciences of the …, 2020)

Target: the molecule itself
Assay: crystal structure

B1: copper-containing nitrite reductase from Geobacillus thermodenitrificans (enzyme)
chain: ESKNKTAATQQSEPNVIAAHKGVNQAPVPLKMERVGPHDVHIEMTAQITDIEIDKGKIYKAWTFNGQAPGPLVVVNEGDTIHFTLKNMDPVVPHSMDFHAVHASPSKDFIDVMPNKSGTFTYPANKPGVFMYHCGTKPVLQHIANGMHGVIIVKPKNGYPTDKEVDREYVLIQNEWYKYNDMNDFQNGVPSYVVFSSKALKPGDPNTNGDTFTLKEKPLLAKVGEKIRLYINNVGPNEVSSFHVVGTVFDDVYLDGNPNNHLQGMQTVMLPASGGAVVEFTVTRPGTYPIVTHQFNHAQKGAVAMLKVTETGEDDGTETSGH
stoichiometry N: 3
